Values quoted from earlier work in PMC6324986.

Target: Bub1 (Homo sapiens) (UniProt O43683)
UniProt O43683, sequence (O43683 whole entry): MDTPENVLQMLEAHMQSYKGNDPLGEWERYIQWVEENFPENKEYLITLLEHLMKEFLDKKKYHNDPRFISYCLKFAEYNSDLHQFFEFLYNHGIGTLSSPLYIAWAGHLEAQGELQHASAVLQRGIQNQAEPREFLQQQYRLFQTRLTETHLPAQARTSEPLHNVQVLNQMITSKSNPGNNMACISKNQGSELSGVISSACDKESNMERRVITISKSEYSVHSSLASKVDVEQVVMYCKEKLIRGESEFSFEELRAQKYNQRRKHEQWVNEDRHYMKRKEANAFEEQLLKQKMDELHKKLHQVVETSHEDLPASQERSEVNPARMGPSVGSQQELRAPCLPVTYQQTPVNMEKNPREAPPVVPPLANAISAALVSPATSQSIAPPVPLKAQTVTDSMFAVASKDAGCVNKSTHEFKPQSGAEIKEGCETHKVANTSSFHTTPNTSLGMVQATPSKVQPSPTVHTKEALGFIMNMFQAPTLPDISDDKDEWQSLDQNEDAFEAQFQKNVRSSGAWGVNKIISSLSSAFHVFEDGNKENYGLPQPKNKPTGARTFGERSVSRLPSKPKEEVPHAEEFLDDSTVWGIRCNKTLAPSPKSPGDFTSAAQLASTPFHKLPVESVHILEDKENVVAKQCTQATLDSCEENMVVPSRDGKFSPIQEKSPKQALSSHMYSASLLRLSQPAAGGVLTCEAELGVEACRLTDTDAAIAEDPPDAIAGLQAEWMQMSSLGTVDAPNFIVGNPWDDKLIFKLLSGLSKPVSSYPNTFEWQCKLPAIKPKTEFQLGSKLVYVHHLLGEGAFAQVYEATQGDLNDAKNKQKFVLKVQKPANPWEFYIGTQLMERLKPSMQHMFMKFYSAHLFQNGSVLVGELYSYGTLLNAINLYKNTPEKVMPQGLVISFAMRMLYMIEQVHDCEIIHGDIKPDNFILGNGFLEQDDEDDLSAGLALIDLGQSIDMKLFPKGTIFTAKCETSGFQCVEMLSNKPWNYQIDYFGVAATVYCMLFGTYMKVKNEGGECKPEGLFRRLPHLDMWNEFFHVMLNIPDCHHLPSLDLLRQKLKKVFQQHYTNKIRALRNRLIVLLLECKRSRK

Mad1 (from UniProt Q9Y6D9)
Kd: > 3000 nM
